From patent US20240425606A1, “ANTI-IL-11RA ANTIBODIES” (Lassen Therapeutics 1, Inc., priority 2021, published 2024)

Biological target: T1, human IL-11Rα (human, UniProt Q14626 23-363, limits assumed)
T1 construct: Protein coated on ELISA plates and used in solution for BLI; also called hIL-11Rα; hIL-11R
T1 sequence: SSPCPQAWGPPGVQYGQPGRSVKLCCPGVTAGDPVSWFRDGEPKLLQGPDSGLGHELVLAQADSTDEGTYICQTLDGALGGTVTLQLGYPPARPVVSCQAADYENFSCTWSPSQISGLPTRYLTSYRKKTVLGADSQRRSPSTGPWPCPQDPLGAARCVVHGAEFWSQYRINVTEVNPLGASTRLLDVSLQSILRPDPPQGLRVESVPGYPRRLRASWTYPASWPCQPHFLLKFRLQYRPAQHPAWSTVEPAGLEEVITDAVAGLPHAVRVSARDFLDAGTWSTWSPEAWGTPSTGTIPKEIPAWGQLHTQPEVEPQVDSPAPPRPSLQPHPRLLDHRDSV
Experiment: competitive ELISA, IL-11R coated on plate; competitor: biotinylated 8E2 (0.1 µg/mL); competing against 8E2-bio
Description: Relative binding activity of the antibodies was tested by competitive ELISA using biotinylated mAbs 8E2 or TS7. Antibodies 8E2 and TS7 were biotinylated using sulfo-NHS Biotin (Thermo Fisher) per the manufacturer's instructions. IL-11R was coated onto ELISA plates (Nunc, MaxiSorp) at 2 μg/mL in PBS, and plates were blocked with 2% BSA in PBS. After washing the plate with water, antibodies to be tested were titrated across the plate in a final volume of 90 μL followed by addition of 10 μL of biotinylated 8E2 or biotinylated TS7, as indicated in Table E1 (0.1 μg/mL final concentration) to each well. Plates were incubated for 2 hours on a plate-shaker, followed by washing and addition of 100 μL/well of streptavidin-HRP (Jackson ImmunoResearch, 1/1000 dilution). After a further 1 hour incubation, plates were washed, developed with Ultra-TMB HRP substrate (Thermo Fisher), and stopped by the addition of 50 μL/well of 2 M sulfuric acid. Plates were read at 450 nm on an iD5 plate reader (Molecular Devices).

B1: mAb1 (antibody, V domains shown)
VH: EVQLLESGGGLVQPGGSLRLSCAASGFTFSWYSMTWVRQAPGKGLEWVSSIVPSGGHTQYADSVKGRFTISRDNSKNTLYLQMNSLRAEDTAVYYCAKGPDWGSFDLWGRGTLVTVSS
VL: DIQMTQSPSSLSASVGDRVTITCQASQDINNYLNWYQQKPGKAPKLLIYDASNLQTGVPSRFSGSGSGTDFTFTISSLQPEDIATYYCQQHESQSPTFGPGTKVDIK
notes: Expressed as human IgG4 (S228P EU)
  IC50: > 10 µg/mL
